Test results taken from the supplement of paper PMC7125110.
± gives the standard error. For part of these data: Fewer inactive variants are shown than the library holds.

B1: glmS ribozyme (parent)
chain: AUAAAAGCGCCAGAACUACAGAAAUGUAGUUGACGAGGAGGAGGUUUAUCGAAUUUUCGGCGGAUGCCUCCAAA

Legend:
Details in all cases: with glucosamine-6-phosphate
[1] = variants of: B1; test: kcat; higher = faster cleavage; RNA array
In short: (§1)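 In situ transcription by E. coli RNA polymerase produced barcoded ribozyme variants on sequenced MiSeq chips, and a hybridised Cy3 probe tracked them at 37 °C. Glucosamine-6-phosphate was flowed in at 40 μM to 10 mM in HEPES/KCl/Mg(OAc)2 buffer. kcat and KM were taken from weighted Michaelis–Menten fits of kobs values from exponential decay fits.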

[2] = variants of: B1; test: KM; higher = weaker cofactor use; RNA array
In short: as §1

[3] = variants of: B1; test: self-cleavage kobs at 640 uM GlcN6P; higher = faster cleavage; RNA array
In short: as §1

[4] = variants of: B1; test: self-cleavage kobs at 2500 uM GlcN6P; higher = faster cleavage; RNA array
In short: as §1

[5] = variants of: B1; test: self-cleavage kobs at 10000 uM GlcN6P; higher = faster cleavage; RNA array
In short: as §1

[6] = variants of: B1; test: self-cleavage kobs at 40 uM GlcN6P; higher = faster cleavage; RNA array
In short: as §1

[7] = variants of: B1; test: self-cleavage kobs at 160 uM GlcN6P; higher = faster cleavage; RNA array
In short: as §1

| Variant | kcat [1] | KM [2] | self-cleavage kobs at 640 uM GlcN6P [3] | self-cleavage kobs at 2500 uM GlcN6P [4] | self-cleavage kobs at 10000 uM GlcN6P [5] | self-cleavage kobs at 40 uM GlcN6P [6] | self-cleavage kobs at 160 uM GlcN6P [7] |
| --- | --- | --- | --- | --- | --- | --- | --- |
| A14U U45G C68U | 0.000104 ± 5.1e-06 s⁻¹ | 786 ± 160 µM | 4.96e-05 ± 1.7e-05 s⁻¹ | 7.43e-05 ± 2.3e-05 s⁻¹ | 9.78e-05 ± 1.7e-05 s⁻¹ | – | – |
| U30G G40U | 0.000787 ± 9.4e-05 s⁻¹ | 1610 ± 350 µM | 0.000212 ± 2.9e-05 s⁻¹ | 0.000615 ± 0.00014 s⁻¹ | 0.000668 ± 7.3e-05 s⁻¹ | 3.53e-05 ± 1.3e-05 s⁻¹ | 6.94e-05 ± 1.5e-05 s⁻¹ |
| A53G G59U | 2.73e-05 ± 4.3e-06 s⁻¹ | – | – | 2.98e-05 ± 1.2e-05 s⁻¹ | 2.45e-05 ± 7.8e-06 s⁻¹ | – | – |
| G29C G40A | 0.000208 ± 2.8e-05 s⁻¹ | 747 ± 260 µM | 0.000102 ± 1.6e-05 s⁻¹ | 0.000221 ± 3.6e-05 s⁻¹ | 0.000178 ± 2.1e-05 s⁻¹ | – | 3.05e-05 ± 9.1e-06 s⁻¹ |
| G59A C68U | 1.6e-05 ± 1.4e-06 s⁻¹ | – | – | – | – | – | – |
| U55G U65G | 0.00419 ± 0.00048 s⁻¹ | 3440 ± 580 µM | 0.000628 ± 0.0001 s⁻¹ | 0.00164 ± 0.00022 s⁻¹ | 0.0033 ± 0.00045 s⁻¹ | 5.26e-05 ± 1.1e-05 s⁻¹ | 0.00022 ± 6.1e-05 s⁻¹ |
| A12U U31A | 0.0283 ± 0.0065 s⁻¹ | 2890 ± 880 µM | 0.00457 ± 0.0011 s⁻¹ | 0.0106 ± 0.0026 s⁻¹ | 0.0257 ± 0.0049 s⁻¹ | 0.000416 ± 7.3e-05 s⁻¹ | 0.00177 ± 0.00045 s⁻¹ |
| U46G C58G | 2.68e-05 ± 1.4e-06 s⁻¹ | 892 ± 260 µM | – | – | 2.44e-05 ± 1.2e-05 s⁻¹ | – | < 1e-05 s⁻¹ |
| C34G C70G | 1.99e-05 ± 6.6e-07 s⁻¹ | 234 ± 89 µM | – | – | – | – | – |
| C10U U54A | 4.72e-05 ± 5.3e-06 s⁻¹ | – | – | 4.32e-05 ± 2.1e-05 s⁻¹ | 4.37e-05 ± 9.7e-06 s⁻¹ | < 1e-05 s⁻¹ | < 1e-05 s⁻¹ |
| A52G C70U C71G | 2.63e-05 ± 1.1e-05 s⁻¹ | – | – | 4.78e-05 ± 1.9e-05 s⁻¹ | – | – | – |
| U46G C71A | 0.00159 ± 0.00031 s⁻¹ | 935 ± 350 µM | 0.000943 ± 0.00016 s⁻¹ | 0.000985 ± 0.00028 s⁻¹ | 0.00143 ± 0.00019 s⁻¹ | 5.65e-05 ± 1.3e-05 s⁻¹ | – |
| C11U G29U | 0.000681 ± 0.00029 s⁻¹ | – | 7.49e-05 ± 1.3e-05 s⁻¹ | 0.000407 ± 6.3e-05 s⁻¹ | 0.000463 ± 6.1e-05 s⁻¹ | – | 5.37e-05 ± 1.3e-05 s⁻¹ |
| G38A C70A | < 1e-05 s⁻¹ | – | – | – | – | < 1e-05 s⁻¹ | – |
| C67G C68U | 7.04e-05 ± 1.8e-06 s⁻¹ | 234 ± 34 µM | 5.35e-05 ± 6.6e-06 s⁻¹ | 6.33e-05 ± 6e-06 s⁻¹ | 6.92e-05 ± 6.7e-06 s⁻¹ | – | 2.51e-05 ± 1e-05 s⁻¹ |
| C34G C68G | 2.55e-05 ± 1e-05 s⁻¹ | – | – | – | – | – | – |

| Variant | kcat [1] | KM [2] | self-cleavage kobs at 640 uM GlcN6P [3] | self-cleavage kobs at 2500 uM GlcN6P [4] | self-cleavage kobs at 10000 uM GlcN6P [5] | self-cleavage kobs at 40 uM GlcN6P [6] | self-cleavage kobs at 160 uM GlcN6P [7] |
| --- | --- | --- | --- | --- | --- | --- | --- |
| C16G G41U | 0.000139 ± 1.4e-05 s⁻¹ | 2720 ± 780 µM | – | 7.39e-05 ± 1.7e-05 s⁻¹ | 0.000107 ± 1.5e-05 s⁻¹ | – | – |
| U46G U54A | 0.00945 ± 0.0015 s⁻¹ | 2450 ± 490 µM | 0.00207 ± 0.00034 s⁻¹ | 0.00434 ± 0.0016 s⁻¹ | 0.00766 ± 0.0012 s⁻¹ | 0.000165 ± 2.1e-05 s⁻¹ | 0.000444 ± 0.00011 s⁻¹ |
| C11A C68G | < 1e-05 s⁻¹ | – | – | – | – | – | – |
| A39U A42G | 0.0208 ± 0.0077 s⁻¹ | 1440 ± 690 µM | 0.0052 ± 0.0011 s⁻¹ | 0.0216 ± 0.0065 s⁻¹ | 0.019 ± 0.006 s⁻¹ | 0.000671 ± 0.00011 s⁻¹ | 0.00186 ± 0.00055 s⁻¹ |
| A15U G40A | 0.000675 ± 9.5e-05 s⁻¹ | 912 ± 230 µM | 0.000282 ± 4.7e-05 s⁻¹ | 0.000515 ± 0.0001 s⁻¹ | 0.000611 ± 0.0001 s⁻¹ | 4.43e-05 ± 1.2e-05 s⁻¹ | 8.75e-05 ± 1.8e-05 s⁻¹ |
| U31A A48G | 2.21e-05 ± 4.8e-06 s⁻¹ | – | – | 3.3e-05 ± 1.1e-05 s⁻¹ | 1.74e-05 ± 7.5e-06 s⁻¹ | – | – |
| A12G A42U A53C | < 1e-05 s⁻¹ | – | – | – | – | < 1e-05 s⁻¹ | – |
| A14C G40U | 0.000718 ± 9.8e-05 s⁻¹ | 2800 ± 790 µM | 0.000144 ± 2.2e-05 s⁻¹ | 0.000352 ± 6.1e-05 s⁻¹ | 0.000555 ± 5.2e-05 s⁻¹ | – | – |
| U54G U56A G63C | < 1e-05 s⁻¹ | – | – | – | – | < 1e-05 s⁻¹ | < 1e-05 s⁻¹ |
| G13C A14C U45A | 0.000417 ± 0.00017 s⁻¹ | – | – | 0.000212 ± 4.3e-05 s⁻¹ | 0.000262 ± 5.6e-05 s⁻¹ | – | – |
| A53G G66A | 0.0293 ± 0.014 s⁻¹ | – | 0.00474 ± 0.0013 s⁻¹ | 0.0128 ± 0.005 s⁻¹ | 0.0293 ± 0.0075 s⁻¹ | 0.000617 ± 0.00011 s⁻¹ | – |
| A6U C70G | 3.01e-05 ± 9.6e-06 s⁻¹ | – | 3.81e-05 ± 1.3e-05 s⁻¹ | 5.38e-05 ± 1.1e-05 s⁻¹ | 1.91e-05 ± 6.9e-06 s⁻¹ | – | – |
| G32U A42G | 0.00137 ± 0.00021 s⁻¹ | 3790 ± 810 µM | 0.000218 ± 4e-05 s⁻¹ | 0.000528 ± 0.00013 s⁻¹ | 0.000988 ± 0.00023 s⁻¹ | – | 4.61e-05 ± 1.7e-05 s⁻¹ |
| A64G U69A | 8.09e-05 ± 8.7e-06 s⁻¹ | 1230 ± 510 µM | 3.36e-05 ± 1.6e-05 s⁻¹ | 4.75e-05 ± 1.6e-05 s⁻¹ | 7.42e-05 ± 1.3e-05 s⁻¹ | < 1e-05 s⁻¹ | – |
| A15C U46C | 0.000304 ± 5.3e-05 s⁻¹ | 1330 ± 520 µM | 0.000119 ± 1.9e-05 s⁻¹ | 0.000176 ± 2.5e-05 s⁻¹ | 0.000295 ± 4.8e-05 s⁻¹ | – | – |
| U47C G66A | 0.00207 ± 0.00059 s⁻¹ | 1050 ± 470 µM | 0.000815 ± 0.0002 s⁻¹ | 0.00159 ± 0.00037 s⁻¹ | 0.00183 ± 0.0004 s⁻¹ | 0.000111 ± 2.1e-05 s⁻¹ | 0.00017 ± 6.1e-05 s⁻¹ |
